Here are results for three molecules from US20150376296A1 (Memorial Sloan Kettering, published 2015).

B1: BTLA iCAR-P (PSMA-specific inhibitory chimeric antigen receptor with BTLA intracellular domain) (receptor)
chain: EVQLQQSGPELVKPGTSVRISCKTSGYTFTEYTIHWVKQSHGKSLEWIGNINPNNGGTTYNQKFEDKATLTVDKSSSTAYMELRSLTSEDSAVYYCAAGWNFDYWGQGTTVTVSSGGGGSGGGGSGGGGSDIVMTQSHKFMSTSVGDRVSIICKASQDVGTAVDWYQQKPGQSPKLLIYWASTRHTGVPDRFTGSGSGTDFTLTITNVQSEDLADYFCQQYNSYPLTFGAGTMLDLKRAAADVKSASERPSKDEMASRPWLLYSLLPLGGLPLLITTCFCLFCCLRRHQGKQNELSDTAGREINLVDAHLKSEQTEASTRQNSQVLLSETGIYDNDPDLCFRMQEGSEVYSNPCLEENKPGIVYASLNHSVIGPNSRLARNVKEAPTEYASICVRS
B2: LAG-3 iCAR-P (PSMA-specific inhibitory chimeric antigen receptor with LAG-3 intracellular domain) (receptor)
chain: EVQLQQSGPELVKPGTSVRISCKTSGYTFTEYTIHWVKQSHGKSLEWIGNINPNNGGTTYNQKFEDKATLTVDKSSSTAYMELRSLTSEDSAVYYCAAGWNFDYWGQGTTVTVSSGGGGSGGGGSGGGGSDIVMTQSHKFMSTSVGDRVSIICKASQDVGTAVDWYQQKPGQSPKLLIYWASTRHTGVPDRFTGSGSGTDFTLTITNVQSEDLADYFCQQYNSYPLTFGAGTMLDLKRAAALGAAVYFTELSSPGAQRSGRAPGALPAGHLLLFLILGVLSLLLLVTGAFGFHLWRRQWRPRRFSALEQGIHPPQAQSKIEELEQEPEPEPEPEPEPEPEPEPEQL
B3: 2B4 iCAR-P (PSMA-specific inhibitory chimeric antigen receptor with 2B4 intracellular domain) (receptor)
chain: EVQLQQSGPELVKPGTSVRISCKTSGYTFTEYTIHWVKQSHGKSLEWIGNINPNNGGTTYNQKFEDKATLTVDKSSSTAYMELRSLTSEDSAVYYCAAGWNFDYWGQGTTVTVSSGGGGSGGGGSGGGGSDIVMTQSHKFMSTSVGDRVSIICKASQDVGTAVDWYQQKPGQSPKLLIYWASTRHTGVPDRFTGSGSGTDFTLTITNVQSEDLADYFCQQYNSYPLTFGAGTMLDLKRAAAQDCQNAHQEFRFWPFLVIIVILSALFLGTLACFCVWRRKRKEKQSETSPKEFLTIYEDVKDLKTRRNHEQEQTFPGGGSTIYSMIQSQSSAPTSQEPAYTLYSLIQPSRKSGSRKRNHSPSFNSTIYEVIGKSQPKAQNPARLSRKELENFDVYS

Chain of human prostate-specific membrane antigen (PSMA) (Q04609 whole entry): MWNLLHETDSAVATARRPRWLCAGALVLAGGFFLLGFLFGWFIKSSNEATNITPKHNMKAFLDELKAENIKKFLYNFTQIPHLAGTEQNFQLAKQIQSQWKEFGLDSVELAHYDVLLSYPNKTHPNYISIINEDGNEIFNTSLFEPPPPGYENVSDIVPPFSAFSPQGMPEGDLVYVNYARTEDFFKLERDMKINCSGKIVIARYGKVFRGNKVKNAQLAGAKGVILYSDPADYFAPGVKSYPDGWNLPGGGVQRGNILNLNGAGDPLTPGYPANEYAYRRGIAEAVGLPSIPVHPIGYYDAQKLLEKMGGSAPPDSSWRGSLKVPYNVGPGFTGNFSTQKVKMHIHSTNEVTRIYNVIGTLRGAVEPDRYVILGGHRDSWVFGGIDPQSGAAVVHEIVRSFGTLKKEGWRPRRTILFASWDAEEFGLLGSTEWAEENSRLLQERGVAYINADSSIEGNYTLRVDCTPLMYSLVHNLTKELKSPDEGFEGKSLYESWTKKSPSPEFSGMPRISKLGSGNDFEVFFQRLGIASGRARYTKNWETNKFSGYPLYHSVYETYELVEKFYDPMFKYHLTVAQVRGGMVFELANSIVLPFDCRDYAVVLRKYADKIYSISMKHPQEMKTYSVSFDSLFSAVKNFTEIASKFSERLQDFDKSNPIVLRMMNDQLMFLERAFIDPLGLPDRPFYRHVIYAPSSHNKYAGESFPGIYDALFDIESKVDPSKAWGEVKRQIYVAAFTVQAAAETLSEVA

This experiment has as its target human prostate-specific membrane antigen (PSMA) (human, UniProt Q04609 1-750). Description: cell-based or functional assay.
Regarding B1, the “cytokine levels of 19-28z/iCAR T cells on CD19+PSMA+ off-target versus CD19+ target AAPCs, inhibition” value came to 30%.

With B2, the “cytokine levels of 19-28z/iCAR T cells on CD19+PSMA+ off-target versus CD19+ target AAPCs, inhibition” value was 30%.

Take B3: the “cytokine levels of 19-28z/iCAR T cells on CD19+PSMA+ off-target versus CD19+ target AAPCs, inhibition” value was 30%.
